Measurements from US20240400618A1 (GRIFOLS DIAGNOSTIC SOLUTIONS, published 2024).
Read-outs that look alike come from different tables or passages of the source.

Tests used:
commercial RBD protein = commercial RBD protein (SARS-CoV-2, UniProt P0DTC2 319-541)
pxENB17-RBD-His [1] = molecular target: T1, pxENB17-RBD-His (SARS-CoV-2, UniProt P0DTC2 319-541)
pxEBNCP3-S1-His = pxEBNCP3-S1-His (SARS-CoV-2, UniProt P0DTC2 15-681)
pxENB14-His-TEV-RBD = pxENB14-His-TEV-RBD (SARS-CoV-2, UniProt P0DTC2 319-541)
pxENB9-FLS-CT-His [2] = molecular target: T2, pxENB9-FLS-CT-His (SARS-CoV-2, UniProt P0DTC2 15-1213)
pxEBNCP14-tPa-FLS-CT-His = pxEBNCP14-tPa-FLS-CT-His (SARS-CoV-2, UniProt P0DTC2 16-1213)
pxEBNCP4-tPa-S1-His = pxEBNCP4-tPa-S1-His (SARS-CoV-2, UniProt P0DTC2 15-681)
pxEBNCP2-tPa-His-TEV-S1 = pxEBNCP2-tPa-His-TEV-S1 (SARS-CoV-2, UniProt P0DTC2 14-680)
[3] = molecular target: pxEBNCP15-mIgGHC-FLS-CT-His (SARS-CoV-2, UniProt P0DTC2 16-1213)
pxEBNCP1-His-TEV-S1 = pxEBNCP1-His-TEV-S1 (SARS-CoV-2, UniProt P0DTC2 14-680)
pxENB8-FLS-TN-His [4] = molecular target: T3, pxENB8-FLS-TN-His (SARS-CoV-2, UniProt P0DTC2 15-1213)
pxAM-FLS-A-TB-His = pxAM-FLS-A-TB-His (SARS-CoV-2, UniProt P0DTC2 15-1213)
pxENB5-his-TEV-FLS [5] = molecular target: T4, pxENB5-his-TEV-FLS (SARS-CoV-2, UniProt P0DTC2 14-1213)
[6] = molecular target: pxENBEP17_TPA_Nuc(1-182)_Spike (15-1216, GAAS, PP)_10xHis (SARS-CoV-2)
pxEBNCP16-IL2-FLS-CT-His = pxEBNCP16-IL2-FLS-CT-His (SARS-CoV-2, UniProt P0DTC2 16-1213)
pxENB12-FLS-His [7] = molecular target: T5, pxENB12-FLS-His (SARS-CoV-2, UniProt P0DTC2 15-1213)
pxENB2-His-TEV-FLS-CT [8] = molecular target: T6, pxENB2-His-TEV-FLS-CT (SARS-CoV-2, UniProt P0DTC2 14-1213)
pxENB1-His-TEV-FLS-TN [9] = molecular target: T7, pxENB1-His-TEV-FLS-TN (SARS-CoV-2, UniProt P0DTC2 14-1213)
[10] = molecular target: pxENBEP18_Spike_Nuc(1-182)_10xHis (SARS-CoV-2)
pxENB9-FLS-CT-His [11] = molecular target: T2, pxENB9-FLS-CT-His; remark: listed apart in the source
pxENB9-FLS-CT-His [12] = molecular target: T2, pxENB9-FLS-CT-His; remark: listed apart in the source
pxENB8-FLS-TN-His [13] = molecular target: T3, pxENB8-FLS-TN-His; remark: listed apart in the source
pxENB5-his-TEV-FLS [14] = molecular target: T4, pxENB5-his-TEV-FLS; remark: listed apart in the source
pxENB12-FLS-His [15] = molecular target: T5, pxENB12-FLS-His; remark: listed apart in the source
pxENB2-His-TEV-FLS-CT [16] = molecular target: T6, pxENB2-His-TEV-FLS-CT; remark: listed apart in the source
pxENB1-His-TEV-FLS-TN [17] = molecular target: T7, pxENB1-His-TEV-FLS-TN; remark: listed apart in the source
pxENBCP20-FLS-CT-His-TST = pxENBCP20-FLS-CT-His-TST (SARS-CoV-2, UniProt P0DTC2 15-1213)
[18] = molecular target: pxENBCP19-FLS-CT-His-StrepTagII (SARS-CoV-2, UniProt P0DTC2 15-1213)
pxENBCP17-FLS-CT-His-SBP = pxENBCP17-FLS-CT-His-SBP (SARS-CoV-2, UniProt P0DTC2 15-1213)
pxENB17-RBD-His [19] = molecular target: T1, pxENB17-RBD-His; remark: listed apart in the source
pxENB17-RBD-His [20] = molecular target: T1, pxENB17-RBD-His; remark: listed apart in the source
pxENB17-RBD-His [21] = molecular target: T1, pxENB17-RBD-His; assay: BLI (Octet), ACE2 construct loaded on SA tips by its tag, RBD as analyte
pxENB9-FLS-CT-His [22] = molecular target: T2, pxENB9-FLS-CT-His; remark: listed apart in the source

B1: pxEBN4-ACE2-AAA-His (receptor)
chain: QSTIEEQAKTFLDKFNHEAEDLFYQSSLASWNYNTNITEENVQNMNNAGDKWSAFLKEQSTLAQMYPLQEIQNLTVKLQLQALQQNGSSVLSEDKSKRLNTILNTMSTIYSTGKVCNPDAPAECLLLEPGLNEIMANSLDYNERLWAWESWRSEVGKALRPLYEEYVVLKNEMARANHYEDYGDYWRGDYEVNGVDGYDYSRGQLIEDVEHTFEEIKPLYEHLHAYVRAKLMNAYPSYISPIGCLPAHLLGDMWGRFWTNLYSLTVPFGQKPNIDVTDAMVDQAWDAQRIFKEAEKFFVSVGLPNMTQGFWENSMLTDPGNVQKAVCHPTAWDLGKGDFRILMCTKVTMDDFLTAHHEMGHIQYDMAYAAQPFLLRNGANEGFHEAVGEIMSLSAATPKHLKSIGLLSPDFQEDNETEINFLLKQALTIVGTLPFTYMLEKWRWMVFKGEIPKDQWMKKWWEMKREIVGVVEPVPHDETYCDPASLFHVSNDYSFIRYYTRTLYQFQFQEALCQAAKHEGPLHKCDISNSTEAGQKLFNMLRLGKSEPWTLALENVVGAKNMNVRPLLNYFEPLFTWLKDQNKNSFVGWSTDWSPYADGGGSHHHHHHHH
Kd (commercial RBD protein): 0.2 nM | Kd (pxENB17-RBD-His [1]): 0.242 nM | Kd (pxEBNCP3-S1-His): 39.6 nM | Kd (pxENB14-His-TEV-RBD): 0.156 nM | Kd (pxENB9-FLS-CT-His [2]): < 0.001 nM | Kd (pxEBNCP14-tPa-FLS-CT-His): 0.00613 nM | Kd (pxEBNCP4-tPa-S1-His): 45 nM | Kd (pxEBNCP2-tPa-His-TEV-S1): 34.2 nM | Kd [3]: < 0.001 nM | Kd (pxEBNCP1-His-TEV-S1): 22.8 nM | Kd (pxENB8-FLS-TN-His [4]): 12.4 nM | Kd (pxAM-FLS-A-TB-His): 0.00709 nM | Kd (pxENB5-his-TEV-FLS [5]): 19.5 nM | Kd [6]: 26.9 nM | Kd (pxEBNCP16-IL2-FLS-CT-His): 1.46 nM | Kd (pxENB12-FLS-His [7]): 13.1 nM | Kd (pxENB2-His-TEV-FLS-CT [8]): 0.45 nM | Kd (pxENB1-His-TEV-FLS-TN [9]): 69.2 nM | Kd [10]: 21.6 nM | Kd (pxENB9-FLS-CT-His [11]): 36.6 nM | Kd (pxENB9-FLS-CT-His [12]): < 0.001 nM | Kd (pxENB8-FLS-TN-His [13]): 6.51 nM | Kd (pxENB5-his-TEV-FLS [14]): 16.6 nM | Kd (pxENB12-FLS-His [15]): 3.19 nM | Kd (pxENB2-His-TEV-FLS-CT [16]): 1.1 nM | Kd (pxENB1-His-TEV-FLS-TN [17]): 3.9 nM | Kd (pxENBCP20-FLS-CT-His-TST): 51.6 nM | Kd [18]: 90.8 nM | Kd (pxENBCP17-FLS-CT-His-SBP): 51.5 nM | Kd (pxENB17-RBD-His [19]): 32.6 nM

B2: pxEBNCP24_hACE2-AAA-p53-SBP (receptor)
chain: QSTIEEQAKTFLDKFNHEAEDLFYQSSLASWNYNTNITEENVQNMNNAGDKWSAFLKEQSTLAQMYPLQEIQNLTVKLQLQALQQNGSSVLSEDKSKRLNTILNTMSTIYSTGKVCNPDAPAECLLLEPGLNEIMANSLDYNERLWAWESWRSEVGKALRPLYEEYVVLKNEMARANHYEDYGDYWRGDYEVNGVDGYDYSRGQLIEDVEHTFEEIKPLYEHLHAYVRAKLMNAYPSYISPIGCLPAHLLGDMWGRFWTNLYSLTVPFGQKPNIDVTDAMVDQAWDAQRIFKEAEKFFVSVGLPNMTQGFWENSMLTDPGNVQKAVCHPTAWDLGKGDFRILMCTKVTMDDFLTAHHEMGHIQYDMAYAAQPFLLRNGANEGFHEAVGEIMSLSAATPKHLKSIGLLSPDFQEDNETEINFLLKQALTIVGTLPFTYMLEKWRWMVFKGEIPKDQWMKKWWEMKREIVGVVEPVPHDETYCDPASLFHVSNDYSFIRYYTRTLYQFQFQEALCQAAKHEGPLHKCDISNSTEAGQKLFNMLRLGKSEPWTLALENVVGAKNMNVRPLLNYFEPLFTWLKDQNKNSFVGWSTDWSPYADGGGSKPLDGEYFTLQIRGRERFEMFRELNEALELKDAQAGKEPGGGSGMDEKTTGWRGGHVVEGLAGELEQLRARLEHHPQGQREP
Kd (pxENB17-RBD-His [20]): 0.231 nM | Response, shift in Wavelength (nm) (pxENB17-RBD-His [21]): 0.028 nm | Kd (pxENB9-FLS-CT-His [22]): 0.001 nM

B3: pxEBNCP13_hACE2-AAA-SBP (receptor)
chain: QSTIEEQAKTFLDKFNHEAEDLFYQSSLASWNYNTNITEENVQNMNNAGDKWSAFLKEQSTLAQMYPLQEIQNLTVKLQLQALQQNGSSVLSEDKSKRLNTILNTMSTIYSTGKVCNPDAPAECLLLEPGLNEIMANSLDYNERLWAWESWRSEVGKALRPLYEEYVVLKNEMARANHYEDYGDYWRGDYEVNGVDGYDYSRGQLIEDVEHTFEEIKPLYEHLHAYVRAKLMNAYPSYISPIGCLPAHLLGDMWGRFWTNLYSLTVPFGQKPNIDVTDAMVDQAWDAQRIFKEAEKFFVSVGLPNMTQGFWENSMLTDPGNVQKAVCHPTAWDLGKGDFRILMCTKVTMDDFLTAHHEMGHIQYDMAYAAQPFLLRNGANEGFHEAVGEIMSLSAATPKHLKSIGLLSPDFQEDNETEINFLLKQALTIVGTLPFTYMLEKWRWMVFKGEIPKDQWMKKWWEMKREIVGVVEPVPHDETYCDPASLFHVSNDYSFIRYYTRTLYQFQFQEALCQAAKHEGPLHKCDISNSTEAGQKLFNMLRLGKSEPWTLALENVVGAKNMNVRPLLNYFEPLFTWLKDQNKNSFVGWSTDWSPYADGGSGMDEKTTGWRGGHVVEGLAGELEQLRARLEHHPQGQREP
Kd (pxENB17-RBD-His [20]): 401 nM | Response, shift in Wavelength (nm) (pxENB17-RBD-His [21]): 0.0102 nm | Kd (pxENB9-FLS-CT-His [22]): 10500 nM

B4: pxEBN9-ACE2-AAA-SBP-His (receptor)
chain: QSTIEEQAKTFLDKFNHEAEDLFYQSSLASWNYNTNITEENVQNMNNAGDKWSAFLKEQSTLAQMYPLQEIQNLTVKLQLQALQQNGSSVLSEDKSKRLNTILNTMSTIYSTGKVCNPDAPAECLLLEPGLNEIMANSLDYNERLWAWESWRSEVGKALRPLYEEYVVLKNEMARANHYEDYGDYWRGDYEVNGVDGYDYSRGQLIEDVEHTFEEIKPLYEHLHAYVRAKLMNAYPSYISPIGCLPAHLLGDMWGRFWTNLYSLTVPFGQKPNIDVTDAMVDQAWDAQRIFKEAEKFFVSVGLPNMTQGFWENSMLTDPGNVQKAVCHPTAWDLGKGDFRILMCTKVTMDDFLTAHHEMGHIQYDMAYAAQPFLLRNGANEGFHEAVGEIMSLSAATPKHLKSIGLLSPDFQEDNETEINFLLKQALTIVGTLPFTYMLEKWRWMVFKGEIPKDQWMKKWWEMKREIVGVVEPVPHDETYCDPASLFHVSNDYSFIRYYTRTLYQFQFQEALCQAAKHEGPLHKCDISNSTEAGQKLFNMLRLGKSEPWTLALENVVGAKNMNVRPLLNYFEPLFTWLKDQNKNSFVGWSTDWSPYADGGGSMDEKTTGWRGGHVVEGLAGELEQLRARLEHHPQGQREPHHHHHHHH
Kd (pxENB17-RBD-His [20]): 32600 nM | Response, shift in Wavelength (nm) (pxENB17-RBD-His [21]): 0.0002 nm | Kd (pxENB9-FLS-CT-His [22]): 13400 nM
